Holding throughout (experiment): dot blot: peptide on nitrocellulose, probed with biotinylated-HN and streptavidin-HRP
The target in one assay is T1, humanin (HN) (human).
T1 construct: Unlabelled HN dotted on nitrocellulose as positive control; also called Humanin (M)
T1 peptide: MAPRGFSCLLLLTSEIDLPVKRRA
On the procedure: (§1) FIG. 12 HN binds to SHLP2 and SHLP4. 2, 5 and 10 nmol of IGF-1 (negative control), HN, SHLP1, 2 or 4 were dotted on to nitrocellulose membrane and left to dry. The membrane was blocked, incubated with biotinylated-HN and streptavidin-HRP and exposed by autoradiography.
(§2) To test a dimerization hypothesis, we performed a dot-blot using biotinylated-HN. Two, 5 or 10 nmol IGF-I (negative control), HN (positive control) or SHLP peptide were dotted on to nitrocellulose membrane, and their ability to bind to biotinylated-HN was assessed immunologically. […] Specific interactions that occur may be determined using, e.g., dot blots with biotinylated SHLPs, and/or antibodies against specific SHLPs.

A further assay deals with T2, SHLP1 (human).
T2 construct: Dotted on nitrocellulose; also called small humanin-like peptide 1; SHLP1 (M)
T2 peptide: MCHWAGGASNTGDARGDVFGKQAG
On the procedure:
as §1, §2

For another assay, the target named is T3, SHLP2 (human).
T3 construct: Dotted on nitrocellulose; also called small humanin-like peptide 2; SHLP2 (M)
T3 peptide: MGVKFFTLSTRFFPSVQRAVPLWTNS
On the procedure:
as §1, §2

The next assay concerns the target T4, SHLP4 (human).
T4 construct: Dotted on nitrocellulose; also called small humanin-like peptide 4; SHLP4 (M)
T4 peptide: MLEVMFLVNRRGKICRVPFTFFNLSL
On the procedure: as §1, §2

Where no end group is shown, it is not given here.

B1: biotinylated-HN (peptide)
peptide: MAPRGFSCLLLLTSEIDLPVKRRA
modifications: also: biotinylated, site not given here
notes: Probe in solution in the dot blot, detected with streptavidin-HRP; also called biotinylated humanin
Regarding B1, the binding result is reported as “binds” in the assay with humanin (HN); “no binding (tested: 2, 5 or 10 nmol dotted)” with SHLP1; “binds” in the assay with SHLP2; “binds” with SHLP4.

Values taken from US20110039771A1 (University of California, published 2011).
